Starred links: 1 amine or outer side, 2 acyl side, 3 side chain; linkers in the order of their positions; H or OH if unused. Non-standard residues stand in square brackets, D forms with d. Groups on a side chain read outwards from the residue. Primed or numbered codes have the meaning given here. No end group written: not given here. *: point of attachment. C20 diacid = O=C(O)CCCCCCCCCCCCCCCCCCC(=O)*; C18 diacid = O=C(O)CCCCCCCCCCCCCCCCC(=O)*; γGlu = O=C(O)[C@H](CCC(=O)[*:2])N[*:1]; Stearoyl = CCCCCCCCCCCCCCCCCC(=O)*; Palmitoyl = CCCCCCCCCCCCCCCC(=O)*; αMeF = C[C@](N)(Cc1ccccc1)C(=O)O; Myristoyl = CCCCCCCCCCCCCC(=O)*; (PEG)2 = polyethylene glycol 2; PEG2′ = polyethylene glycol 2; αMeS = C[C@](N)(CO)C(=O)O; AEEA = NCCOCCOCC(=O)O; Aib = CC(C)(N)C(=O)O
Legend:
human GLP-1 receptor = human GLP-1 receptor (human, UniProt P43220); test: cell-based or functional assay
human glucagon receptor = human glucagon receptor (human, UniProt P47871); test: cell-based or functional assay

B1: Peptide 15 (peptide)
peptide: H[Aib]HGS[αMeF]TSDVSK[αMeF]LDSK([AEEA-AEEA-γGlu-C18 diacid])AARD[αMeF]VE[Aib]IANT-NH2
modifications: N-terminus assumed
SMILES: CC[C@H](C)[C@H](NC(=O)C(C)(C)NC(=O)[C@H](CCC(=O)O)NC(=O)[C@@H](NC(=O)[C@](C)(Cc1ccccc1)NC(=O)[C@H](CC(=O)O)NC(=O)[C@H](CCCNC(=N)N)NC(=O)[C@H](C)NC(=O)[C@H](C)NC(=O)[C@H](CCCCNC(=O)COCCOCCNC(=O)COCCOCCNC(=O)CC[C@H](NC(=O)CCCCCCCCCCCCCCCCC(=O)O)C(=O)O)NC(=O)[C@H](CO)NC(=O)[C@H](CC(=O)O)NC(=O)[C@H](CC(C)C)NC(=O)[C@](C)(Cc1ccccc1)NC(=O)[C@H](CCCCN)NC(=O)[C@H](CO)NC(=O)[C@@H](NC(=O)[C@H](CC(=O)O)NC(=O)[C@H](CO)NC(=O)[C@@H](NC(=O)[C@](C)(Cc1ccccc1)NC(=O)[C@H](CO)NC(=O)CNC(=O)[C@H](Cc1c[nH]cn1)NC(=O)C(C)(C)NC(=O)[C@@H](N)Cc1c[nH]cn1)[C@@H](C)O)C(C)C)C(C)C)C(=O)N[C@@H](C)C(=O)N[C@@H](CC(N)=O)C(=O)N[C@H](C(N)=O)[C@@H](C)O
cAMP production, hGLP-1R EC50 (pM) (human GLP-1 receptor): 33.1 pM | cAMP production, hGluc-R EC50 (pM) (human glucagon receptor): 61.4 pM

B2: Peptide 110 (peptide)
peptide: HSQGS[αMeF]TSDVSK(Ac)[Aib]LDSK([(PEG)2-(PEG)2-γGlu-γGlu-Stearoyl])AAQD[αMeF]VQ[Aib]IAN-NH2
cAMP production, hGLP-1R EC50 (pM) (human GLP-1 receptor): 0.627 pM | cAMP production, hGluc-R EC50 (pM) (human glucagon receptor): 48.5 pM

B3: Peptide 131 (peptide)
peptide: H[αMeS]QGS[αMeF]TSDVSKILDSK([PEG2′-PEG2′-γGlu-γGlu-Palmitoyl])AAQD[αMeF]VQ[Aib]IINT-NH2
cAMP production, hGLP-1R EC50 (pM) (human GLP-1 receptor): 0.511 pM | cAMP production, hGluc-R EC50 (pM) (human glucagon receptor): 17.8 pM

B4: Peptide 118 (peptide)
peptide: HSQGS[αMeF]TSDVSKILDSK([(PEG)2-(PEG)2-γGlu-γGlu-Palmitoyl])AAQD[αMeF]VQ[Aib]IINT-NH2
cAMP production, hGLP-1R EC50 (pM) (human GLP-1 receptor): 1.07 pM | cAMP production, hGluc-R EC50 (pM) (human glucagon receptor): 1.2 pM

B5: Peptide 120 (peptide)
peptide: HSQGS[αMeF]TSDVSKILDSK([(PEG)2-(PEG)2-γGlu-Stearoyl])AAQD[αMeF]VQ[Aib]IINT-NH2
cAMP production, hGLP-1R EC50 (pM) (human GLP-1 receptor): 1.81 pM | cAMP production, hGluc-R EC50 (pM) (human glucagon receptor): 2.62 pM

B6: Peptide 132 (peptide)
peptide: H[αMeS]QGS[αMeF]TSDVSKILDSK([PEG2′-PEG2′-γGlu-γGlu-Myristoyl])AAQD[αMeF]VQ[Aib]IINT-NH2
cAMP production, hGLP-1R EC50 (pM) (human GLP-1 receptor): 0.949 pM | cAMP production, hGluc-R EC50 (pM) (human glucagon receptor): 34.3 pM

B7: Peptide 122 (peptide)
peptide: HSQGS[αMeF]TSDVSKILDSK([(PEG)2-(PEG)2-γGlu-Myristoyl])AAQD[αMeF]VQ[Aib]IINT-NH2
cAMP production, hGLP-1R EC50 (pM) (human GLP-1 receptor): 1.42 pM | cAMP production, hGluc-R EC50 (pM) (human glucagon receptor): 0.857 pM

B8: Peptide 128 (peptide)
peptide: H[Aib]QGS[αMeF]TSDVSKILDSK([(PEG)2-(PEG)2-γGlu-Palmitoyl])AAQD[αMeF]VQ[Aib]IINT-NH2
cAMP production, hGLP-1R EC50 (pM) (human GLP-1 receptor): 0.788 pM | cAMP production, hGluc-R EC50 (pM) (human glucagon receptor): 4.7 pM

B9: Peptide 125 (peptide)
peptide: H[Aib]QGS[αMeF]TSDVSKILDSK([(PEG)2-(PEG)2-γGlu-γGlu-Palmitoyl])AAQD[αMeF]VQ[Aib]IINT-NH2
cAMP production, hGLP-1R EC50 (pM) (human GLP-1 receptor): 0.575 pM | cAMP production, hGluc-R EC50 (pM) (human glucagon receptor): 6.68 pM

B10: Peptide 111 (peptide)
peptide: HSQGS[αMeF]TSDVSKILDSKAAQD[αMeF]VQ[Aib]IAN-NH2
modifications: not fully specified (residue 17)
cAMP production, hGLP-1R EC50 (pM) (human GLP-1 receptor): 1.92 pM | cAMP production, hGluc-R EC50 (pM) (human glucagon receptor): 2.09 pM

B11: Peptide 1 (peptide)
peptide: HSQGS[αMeF]TSDVSK[Aib]LDSK([AEEA-AEEA-γGlu-C18 diacid])AAQD[αMeF]VQ[Aib]IAN-NH2
modifications: N-terminus assumed
SMILES: CC[C@H](C)[C@H](NC(=O)C(C)(C)NC(=O)[C@H](CCC(N)=O)NC(=O)[C@@H](NC(=O)[C@](C)(Cc1ccccc1)NC(=O)[C@H](CC(=O)O)NC(=O)[C@H](CCC(N)=O)NC(=O)[C@H](C)NC(=O)[C@H](C)NC(=O)[C@H](CCCCNC(=O)COCCOCCNC(=O)COCCOCCNC(=O)CC[C@H](NC(=O)CCCCCCCCCCCCCCCCC(=O)O)C(=O)O)NC(=O)[C@H](CO)NC(=O)[C@H](CC(=O)O)NC(=O)[C@H](CC(C)C)NC(=O)C(C)(C)NC(=O)[C@H](CCCCN)NC(=O)[C@H](CO)NC(=O)[C@@H](NC(=O)[C@H](CC(=O)O)NC(=O)[C@H](CO)NC(=O)[C@@H](NC(=O)[C@](C)(Cc1ccccc1)NC(=O)[C@H](CO)NC(=O)CNC(=O)[C@H](CCC(N)=O)NC(=O)[C@H](CO)NC(=O)[C@@H](N)Cc1c[nH]cn1)[C@@H](C)O)C(C)C)C(C)C)C(=O)N[C@@H](C)C(=O)N[C@@H](CC(N)=O)C(N)=O
cAMP production, hGLP-1R EC50 (pM) (human GLP-1 receptor): 3200 pM | cAMP production, hGluc-R EC50 (pM) (human glucagon receptor): > 27100 pM

B12: Peptide 13 (peptide)
peptide: H[Aib]HGS[αMeF]TSDVSK[αMeF]LDSK([AEEA-AEEA-γGlu-C18 diacid])AARD[αMeF]VQ[Aib]IANT-NH2
modifications: N-terminus assumed
SMILES: CC[C@H](C)[C@H](NC(=O)C(C)(C)NC(=O)[C@H](CCC(N)=O)NC(=O)[C@@H](NC(=O)[C@](C)(Cc1ccccc1)NC(=O)[C@H](CC(=O)O)NC(=O)[C@H](CCCNC(=N)N)NC(=O)[C@H](C)NC(=O)[C@H](C)NC(=O)[C@H](CCCCNC(=O)COCCOCCNC(=O)COCCOCCNC(=O)CC[C@H](NC(=O)CCCCCCCCCCCCCCCCC(=O)O)C(=O)O)NC(=O)[C@H](CO)NC(=O)[C@H](CC(=O)O)NC(=O)[C@H](CC(C)C)NC(=O)[C@](C)(Cc1ccccc1)NC(=O)[C@H](CCCCN)NC(=O)[C@H](CO)NC(=O)[C@@H](NC(=O)[C@H](CC(=O)O)NC(=O)[C@H](CO)NC(=O)[C@@H](NC(=O)[C@](C)(Cc1ccccc1)NC(=O)[C@H](CO)NC(=O)CNC(=O)[C@H](Cc1c[nH]cn1)NC(=O)C(C)(C)NC(=O)[C@@H](N)Cc1c[nH]cn1)[C@@H](C)O)C(C)C)C(C)C)C(=O)N[C@@H](C)C(=O)N[C@@H](CC(N)=O)C(=O)N[C@H](C(N)=O)[C@@H](C)O
cAMP production, hGLP-1R EC50 (pM) (human GLP-1 receptor): 15.9 pM | cAMP production, hGluc-R EC50 (pM) (human glucagon receptor): 44 pM

B13: Peptide 119 (peptide)
peptide: HSQGS[αMeF]TSDVSKILDSK([(PEG)2-(PEG)2-γGlu-γGlu-Myristoyl])AAQD[αMeF]VQ[Aib]IINT-NH2
cAMP production, hGLP-1R EC50 (pM) (human GLP-1 receptor): 1.39 pM | cAMP production, hGluc-R EC50 (pM) (human glucagon receptor): 1.7 pM

B14: Peptide 133 (peptide)
peptide: H[αMeS]QGS[αMeF]TSDVSKILDSK([PEG2′-PEG2′-γGlu-Stearoyl])AAQD[αMeF]VQ[Aib]IINT-NH2
cAMP production, hGLP-1R EC50 (pM) (human GLP-1 receptor): 1.06 pM | cAMP production, hGluc-R EC50 (pM) (human glucagon receptor): 30 pM

B15: Peptide 129 (peptide)
peptide: H[Aib]QGS[αMeF]TSDVSKILDSK([(PEG)2-(PEG)2-γGlu-Myristoyl])AAQD[αMeF]VQ[Aib]IINT-NH2
cAMP production, hGLP-1R EC50 (pM) (human GLP-1 receptor): 0.462 pM | cAMP production, hGluc-R EC50 (pM) (human glucagon receptor): 4.1 pM

B16: Peptide 127 (peptide)
peptide: H[Aib]QGS[αMeF]TSDVSKILDSK([(PEG)2-(PEG)2-γGlu-Stearoyl])AAQD[αMeF]VQ[Aib]IINT-NH2
cAMP production, hGLP-1R EC50 (pM) (human GLP-1 receptor): 0.998 pM | cAMP production, hGluc-R EC50 (pM) (human glucagon receptor): 12.6 pM

B17: Peptide 121 (peptide)
peptide: HSQGS[αMeF]TSDVSKILDSK([(PEG)2-(PEG)2-γGlu-Palmitoyl])AAQD[αMeF]VQ[Aib]IINT-NH2
cAMP production, hGLP-1R EC50 (pM) (human GLP-1 receptor): 1.5 pM | cAMP production, hGluc-R EC50 (pM) (human glucagon receptor): 1.2 pM

B18: Peptide 14 (peptide)
peptide: H[Aib]HGS[αMeF]TSDVSK[αMeF]LDSK([AEEA-AEEA-γGlu-γGlu-C20 diacid])AARD[αMeF]VQ[Aib]IANT-NH2
modifications: N-terminus assumed
SMILES: CC[C@H](C)[C@H](NC(=O)C(C)(C)NC(=O)[C@H](CCC(N)=O)NC(=O)[C@@H](NC(=O)[C@](C)(Cc1ccccc1)NC(=O)[C@H](CC(=O)O)NC(=O)[C@H](CCCNC(=N)N)NC(=O)[C@H](C)NC(=O)[C@H](C)NC(=O)[C@H](CCCCNC(=O)COCCOCCNC(=O)COCCOCCNC(=O)CC[C@H](NC(=O)CC[C@H](NC(=O)CCCCCCCCCCCCCCCCCCC(=O)O)C(=O)O)C(=O)O)NC(=O)[C@H](CO)NC(=O)[C@H](CC(=O)O)NC(=O)[C@H](CC(C)C)NC(=O)[C@](C)(Cc1ccccc1)NC(=O)[C@H](CCCCN)NC(=O)[C@H](CO)NC(=O)[C@@H](NC(=O)[C@H](CC(=O)O)NC(=O)[C@H](CO)NC(=O)[C@@H](NC(=O)[C@](C)(Cc1ccccc1)NC(=O)[C@H](CO)NC(=O)CNC(=O)[C@H](Cc1c[nH]cn1)NC(=O)C(C)(C)NC(=O)[C@@H](N)Cc1c[nH]cn1)[C@@H](C)O)C(C)C)C(C)C)C(=O)N[C@@H](C)C(=O)N[C@@H](CC(N)=O)C(=O)N[C@H](C(N)=O)[C@@H](C)O
cAMP production, hGLP-1R EC50 (pM) (human GLP-1 receptor): 93.8 pM | cAMP production, hGluc-R EC50 (pM) (human glucagon receptor): 462 pM
